Source: patent US20210253725A1 (BIONTECH, published 2021)
Positions count from the first letter of the chain named. Names and notes keep the numbering of the source.

T1: CD134 expressed on the cell surface of HT1080_OX40 cells (human, UniProt P43489 29-277)
T1 construct: whole, on cells; species not restated for the HT1080 transfectant
T1 sequence (looked up): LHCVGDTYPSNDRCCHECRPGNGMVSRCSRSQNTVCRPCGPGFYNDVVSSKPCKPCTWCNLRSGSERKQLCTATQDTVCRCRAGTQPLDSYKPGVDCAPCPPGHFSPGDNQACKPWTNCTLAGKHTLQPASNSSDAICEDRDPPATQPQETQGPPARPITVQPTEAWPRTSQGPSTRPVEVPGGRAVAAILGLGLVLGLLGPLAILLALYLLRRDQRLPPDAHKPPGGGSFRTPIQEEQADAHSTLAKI

T2: CD134 protein (His-tagged, Sino Biological Inc. 10481-H08H) (human, UniProt P43489 29-216)
T2 construct: bought protein coated on ELISA plates; also called OX40; TNFRSF4; not shown: His tag
T2 sequence (looked up): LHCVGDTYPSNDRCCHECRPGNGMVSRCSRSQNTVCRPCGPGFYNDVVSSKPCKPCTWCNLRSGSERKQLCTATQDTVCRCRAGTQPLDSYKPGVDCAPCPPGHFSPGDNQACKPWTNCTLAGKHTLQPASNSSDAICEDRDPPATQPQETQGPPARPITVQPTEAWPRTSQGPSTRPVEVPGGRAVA

B1: P018.S.12.A.C05 (antibody, V domains shown)
VH: QSLEESGGRLVTPGTPLTLTCTASGFSLSNYYMNWVRQAPGKGLEWIGIIDKSGSAYYASWARGRFTISKTSTTVGLKIPSPTTEDTATYFCARGYGGYADHGLGLWGQGTLVTVSS
VL: DVVMTQTPASVSEPVGGTVTIKCQASQSIAGWLAWYQQKPGQPPKLLIYQASKLASGVPSRFSGSGSGTEYTLTISDLESDDAATYYCQCTYGSGSGSNGFGGGTEVVVK
notes: V regions on human Ig constant parts; also called AB134_65
B2: P018.S.12.A.A05 (antibody, V domains shown)
VH: B1 VH with M33I
VL: B1 VL with G95A
notes: V regions on human Ig constant parts; also called AB134_54
B3: P018.S.11.A.E06 (antibody, V domains shown)
VH: QSVEESGGRLVTPGTPLTLTCTASGFSLSSYYMSWVRQAPGKGLEWIGIIDTGSGDTWYATWAKGRFTISKTSTTVDLKMTSLTTEDTATYFCARVNPEFAHVWPYYFDLWGQGTLVTVSS
VL: ALVMTQTPASVEVAVGGTVTIKCQASQSISSNFLSWYQQNPGQPPKLLIDRASTLESGVPSRFKGSGSGTEFTLTISDLESADAATYYCQQGDSLSNVENAFGGGTELVVK
notes: V regions on human Ig constant parts; also called AB134_37
B4: P018.S.02.A.F03 (antibody, V domains shown)
VH: QSVEESGGRLVTPGTPLTLTCTASGFSLSRYYMSWVRQAPGKGLEWIGFINTAGSAYYASWAKGRFTISRTSTTVDLKMTSLTTEDTATYFCARDLSRFSLWGRGTLVIVSS
VL: AAVLTQTPSPVSAAVGGTVTINCQASPSVYSDYLSWFQKKPGQPPKLLIYWASTLASGVPSRFSGSGSGTQFTLTISDLESDDVATYYCAGGYSGNSDNWAFGGGTDVVVK
notes: V regions on human Ig constant parts; also called AB134_2
B5: P018.S.11.A.B04 (antibody, V domains shown)
VH: QEQLEESGGDLVKPEGSLTLTCTASGFSFSSAYYMCWVRQAPGKGLEWIACIDAGSSGSTYYASWAKGRFTISKTSSTTVTLQMTSLTAADTATYFCARDGGSTTGYGWLDLWGQGTLVTVSS
VL: AVVMTQTASPVSAAVGGTVTINCQASQSIGTNYLSWYQQKPGQPPKLLIYEASNLETGVPSRFKGSGSGTEYSLTISDLESADAATYYCLYSYYSSSSAYTFGGGTEVVVK
notes: V regions on human Ig constant parts; also called AB134_25
B6: P018.S.11.A.G04 (antibody, V domains shown)
VH: QSVEESGGRLVTPGTPLTLTCTASGFDLSSYYMSWVRQAPGKGLEWIGIIYTDSSASYASWAKGRFTISRTSTTVDLKMTSPTTEDTATYFCARGLVVSTDNYNLWGPGTLVTVSS
VL: AAVLTQTPSPVSVAVGGTVTINCQASQSIYNNNYLAWFQQKPGQPPKLLIYYTSTLASGVPSRFKGSGSGTQFTLTINGVQSDDAATYYCLGDVGGGMRVFGGGTEVVVK
notes: V regions on human Ig constant parts; also called AB134_44
B7: P018.S.12.A.E02 (antibody, V domains shown)
VH: QSVEESGGRLVTPGTPLTLTCTASGFTLSSYYMGWVRQAPGKGLEWIGIIYPSGSAYYATWTKGRFTISRTSTTVDLKVTGPTTEDTATYFCARSTTSSLYYGYNLWGQGTLVTVSS
VL: DIVMTQTPASVEAAVGGTVTIKCQASASITNWLAWYQQKPGQPPKLLIYKASTLESGVPSRFKGSGSGTEFTLTISDLESADAASYYCQSNYGGGSDTSHTFGGGTGVVVK
notes: V regions on human Ig constant parts; also called AB134_73

What follows are binders tested against T1, CD134 expressed on the cell surface of … (assay: HT1080_OX40 cells, imaging).
Also: test concentration or dose not given here.

| Cellular binding assay [RFU] | Binder |
| --- | --- |
| 494 | B1 |
| 503 | B2 |
| 554 | B3 |
| 140 | B4 |
| 444 | B5 |
| 482 | B6 |
| 497 | B7 |

The binders below were run against T1, CD134 expressed on the cell surface of … (assay: cell-based or functional assay).

| Functional assay Cross-linked by F(ab′)2 fragment IL-8 [abs. corr.] | Functional assay IL-8 [abs. corr.] | Binder |
| --- | --- | --- |
| 1.65 | 0.228 | B1 |
| 1.53 | 0.267 | B2 |
| 1.72 | 0.278 | B3 |
| 1.73 | 0.09 | B4 |
| 1.66 | -0.087 | B5 |
| 1.75 | 0.014 | B6 |
| 1.63 | 0.355 | B7 |

The binders below were run against T2, CD134 protein (His-tagged, Sino …) (assay: ELISA, coated His-tagged CD134).

| ELISA [abs. corr.] | Binder |
| --- | --- |
| 2.94 | B1 |
| 2.86 | B2 |
| 2.05 | B3 |
| 2.85 | B4 |
| 1.43 | B5 |
| 2.13 | B6 |
| 2.59 | B7 |
